We go through 1 molecule from patent publication US20040166543A1 (Dana-Farber, published 2004).

The assay addresses T1, MUC1 (full-length wild-type DF3/MUC1 glycoprotein) (human, UniProt P15941 24-1255).
T1 construct: whole, on cells; One entry for endogenous and transfected wild-type MUC1; Co-immunoprecipitated from NP-40 lysates with mAb DF3; also called wild-type MUC1
Nature of the assay: co-IP from ZR-75-1 lysate: anti-MUC1 IP, anti-PKCµ blot (FIG. 13B).

B1: PKCµ (protein kinase Cµ), endogenous in ZR-75-1 cells (enzyme, human, UniProt Q15139 1-912, looked up)
chain: MSAPPVLRPPSPLLPVAAAAAAAAAALVPGSGPGPAPFLAPVAAPVGGISFHLQIGLSREPVLLLQDSSGDYSLAHVREMACSIVDQKFPECGFYGMYDKILLFRHDPTSENILQLVKAASDIQEGDLIEVVLSASATFEDFQIRPHALFVHSYRAPAFCDHCGEMLWGLVRQGLKCEGCGLNYHKRCAFKIPNNCSGVRRRRLSNVSLTGVSTIRTSSAELSTSAPDEPLLQKSPSESFIGREKRSNSQSYIGRPIHLDKILMSKVKVPHTFVIHSYTRPTVCQYCKKLLKGLFRQGLQCKDCRFNCHKRCAPKVPNNCLGEVTINGDLLSPGAESDVVMEEGSDDNDSERNSGLMDDMEEAMVQDAEMAMAECQNDSGEMQDPDPDHEDANRTISPSTSNNIPLMRVVQSVKHTKRKSSTVMKEGWMVHYTSKDTLRKRHYWRLDSKCITLFQNDTGSRYYKEIPLSEILSLEPVKTSALIPNGANPHCFEITTANVVYYVGENVVNPSSPSPNNSVLTSGVGADVARMWEIAIQHALMPVIPKGSSVGTGTNLHRDISVSISVSNCQIQENVDISTVYQIFPDEVLGSGQFGIVYGGKHRKTGRDVAIKIIDKLRFPTKQESQLRNEVAILQNLHHPGVVNLECMFETPERVFVVMEKLHGDMLEMILSSEKGRLPEHITKFLITQILVALRHLHFKNIVHCDLKPENVLLASADPFPQVKLCDFGFARIIGEKSFRRSVVGTPAYLAPEVLRNKGYNRSLDMWSVGVIIYVSLSGTFPFNEDEDIHDQIQNAAFMYPPNPWKEISHEAIDLINNLLQVKMRKRYSVDKTLSHPWLQDYQTWLDLRELECKIGERYITHESDDLRWEKYAGEQGLQYPTHLINPSASHSDTPETEETEMKALGERVSIL
notes: whole, on cells
On to B1, for which the binding result is “no binding”.
